Test results: paper PMC7749166 (Communications Biology, 2020)

Tested on: C5aR∆Tyr
Experiment: FD-/FV-based AFM dynamic force spectroscopy vs Tyr mutant (Y11F, Y14F)
Format: binding, human
Details: C5a tip (probes effector site), FNdY fit
Excerpt: Finally, to obtain the full picture of the binding mechanism between C5a and its receptor, we also investigated the binding interaction between the C-terminal segment of C5a and the effector site. To achieve this, we abolished the interaction that the rigid core of C5a establishes with sulfonated residues at the binding site, so the C5aR∆Tyr mutant with mutation sites Y11F and Y14F was generated. The lack of sulfonation on the C5aR∆Tyr mutant was validated by western blot using anti-sulfated tyrosine antibodies (Fig. S1). The interaction between the C5a ligand and C5aR∆Tyr was measured and the dependence of the rupture force with the loading rate was plotted in the DFS graph in Fig. 5d. We extracted an equilibrium force Feq of 32 ± 5 pN, a binding equilibrium free energy ΔGbu of −4.7 ± 1.4 kcal mol^−1, and a receptor–ligand half-residence time, τ0.5 of 0.6 ms.
The reconstituted C5aR sample solution (either wt-C5aR or mutants) was 20-fold diluted in fusion buffer solution (20 mM HEPES, 300 mM NaCl, and 25 mM MgCl2) and adsorbed on freshly cleaved mica for 15 min. After rinsing with imaging buffer (20 mM HEPES and 300 mM NaCl) the sample was transferred to the AFM.
Rectangular Si3N4 AFM cantilevers with silicon tips (BioLever mini, Bruker) were first cleaned with chloroform for 10 min, rinsed with ethanol, N2 dried, and then cleaned for 15 min in an ultraviolet radiation and ozone cleaner (UV-O, Jetlight, CA, USA). For the aminofunctionalization, the cantilevers were immersed in an ethanolamine solution (3.3 g ethanolamine in 6.6 ml DMSO) overnight and then rinsed in DMSO (3 × 1 min) and ethanol (3 × 1 min), followed by N2 drying. This was followed by the N-hydroxysuccinimide (NHS)-PEG27-acetal linker attachment. A 1 mg portion of the NHS-PEG27-acetal linker (JKU, Linz, Austria) was diluted in 0.5 ml chloroform with 30 µl triethylamine and the cantilevers were immersed in this solution for 2 h. […]

B1: C5a: C5a, a large 74-amino acid glycoprotein; endogenous ligand of C5aR (His6-tag at N-terminal end for AFM tips) (protein)
chain: TLQKKIEEIAAKYKHSVVKKCCYDGACVNNDETCEQRAARISLGPRCIKAFTECCVVASQLRANISHKDMQLGR
modifications: left off: His6, N-terminal, kept
  residence time τ0.5: 0.6 ms
± s.e.m.
  binding equilibrium free energy ΔGbu: -4.7 ± 1.4 kcal/mol
  equilibrium force Feq: 32 ± 5 pN
